The experiment concerns the target Atto 488 labelled FaeG (Escherichia coli).

Drawing on patent US20220119505A1, this text covers Hydrodynamic radius (nm) for two molecules.

B1: F45::(GGGGS)3::F45 homodivalent protein construct (VHH)
chain: QVQLQESGGGLVQPGGSLRLSCLVSGGTFSWYAMGWFRQAPGKEREFVATVSRGGGSSYYADSVKGRFTISRDNAKNTVYLQMNSLKPEDTAVYYCAAGRGAPSDTGRPDEYDYWGQGTQVTVSSGGGGSGGGGSGGGGSQVQLQESGGGLVQPGGSLRLSCLVSGGTFSWYAMGWFRQAPGKEREFVATVSRGGGSSYYADSVKGRFTISRDNAKNTVYLQMNSLKPEDTAVYYCAAGRGAPSDTGRPDEYDYWGQGTQVTVSS
The molecule B1 returned a Hydrodynamic radius (nm) of 2.97 nm.

B2: F45 single-domain antibody (VHH)
VHH: QVQLQESGGGLVQPGGSLRLSCLVSGGTFSWYAMGWFRQAPGKEREFVATVSRGGGSSYYADSVKGRFTISRDNAKNTVYLQMNSLKPEDTAVYYCAAGRGAPSDTGRPDEYDYWGQGTQVTVSS
In turn, B2 gave a Hydrodynamic radius (nm) of 3.02 nm.
